# Source: ChEMBL document CHEMBL1649078, “Novel antiviral C5-substituted pyrimidine acyclic nucleoside phosphonates selected as human thymidylate kinase substrates” (J Med Chem, 2011)
# The source made the active and inactive calls.
# B1: Thymidylate kinase (Homo sapiens), P23919 (protein)
# chain: MAARRGALIVLEGVDRAGKSTQSRKLVEALCAAGHRAELLRFPERSTEIGKLLSSYLQKKSDVEDHSVHLLFSANRWEQVPLIKEKLSQGVTLVVDRYAFSGVAFTGAKENFSLDWCKQPDVGLPKPDLVLFLQLQLADAAKRGAFGHERYENGAFQERALRCFHQLMKDTTLNWKMVDASKSIEAVHEDIRVLSEDAIRTATEKPLGELWK
# Key:
# Homo sapiens [1] = species: Homo sapiens; experiment: Displacement of MABA-CDP from human recombinant UCK by fluorescence competition assay
# [2] = target: Thymidine kinase, cytosolic (Homo sapiens) (UniProt P04183); experiment: Inhibition of human recombinant TK1-mediated thymidine phosphorylation ar 0.3 mM
# Thymidine kinase, cytosolic (Homo sapiens), sequence (P04183 whole entry): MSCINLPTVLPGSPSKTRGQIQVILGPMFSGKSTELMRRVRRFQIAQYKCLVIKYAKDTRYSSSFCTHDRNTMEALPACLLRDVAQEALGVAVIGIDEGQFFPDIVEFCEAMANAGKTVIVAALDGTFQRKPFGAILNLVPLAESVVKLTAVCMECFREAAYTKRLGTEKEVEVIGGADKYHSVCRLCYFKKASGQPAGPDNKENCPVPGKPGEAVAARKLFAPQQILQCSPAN
# Homo sapiens [3] = species: Homo sapiens; experiment: Binding affinity to human recombinant UCK dCMP binding site
# [4] = Inhibition of human recombinant UCK by Double reciprocal plot analysis
# [5] = target: Thymidine kinase 2, mitochondrial (Homo sapiens) (UniProt O00142); experiment: Inhibition of human recombinant TK2-mediated thymidine phosphorylation ar 0.3 mM
# Thymidine kinase 2, mitochondrial (Homo sapiens), sequence (O00142 whole entry): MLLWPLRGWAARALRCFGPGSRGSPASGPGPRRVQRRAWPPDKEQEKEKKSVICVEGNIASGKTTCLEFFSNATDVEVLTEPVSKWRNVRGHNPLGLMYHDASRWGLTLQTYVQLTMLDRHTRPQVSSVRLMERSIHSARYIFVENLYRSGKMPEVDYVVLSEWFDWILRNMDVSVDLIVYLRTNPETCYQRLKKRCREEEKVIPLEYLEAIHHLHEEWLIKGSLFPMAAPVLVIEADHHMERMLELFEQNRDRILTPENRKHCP
# Homo sapiens [6] = species: Homo sapiens; experiment: Binding affinity to human recombinant UCK ATP binding site
# [7] = Displacement of Mant-ATP from human recombinant UCK by fluorescence competition assay; conditions: read-out: Kd(app)
# Homo sapiens [8] = species: Homo sapiens; experiment: Activity at human recombinant UCK by Michaelis-Menten equation analysis
# [9] = substrate: Cc1cn(C/C=C/P(=O)(O)O)c(=O)[nH]c1=O; experiment: (§1) Ratio of kcat/km for human recombinant TMPK by Michaelis-Menten equation analysis
# [10] = substrate: Cc1cn(C/C=C/CCP(=O)(O)O)c(=O)[nH]c1=O; experiment: as §1
# [11] = substrate: Cc1cn([C@H]2C[C@H](O)[C@@H](COP(=O)(O)O)O2)c(=O)[nH]c1=O; experiment: as §1
# [12] = substrate: Cc1cn([C@H]2C[C@H](N=[N+]=[N-])[C@@H](COP(=O)(O)O)O2)c(=O)[nH]c1=O; experiment: as §1
# [13] = substrate: O=c1[nH]c(=O)n(C/C=C/CP(=O)(O)O)cc1Cl; experiment: as §1
# [14] = substrate: O=c1[nH]c(=O)n(C/C=C/CCP(=O)(O)O)cc1F; experiment: as §1
# [15] = substrate: O=c1ccn([C@H]2C[C@H](O)[C@@H](COP(=O)(O)O)O2)c(=O)[nH]1; experiment: as §1
# [16] = substrate: O=c1[nH]c(=O)n([C@H]2C[C@H](O)[C@@H](COP(=O)(O)O)O2)cc1Br; experiment: as §1
# [17] = substrate: O=c1ccn(C/C=C/CP(=O)(O)O)c(=O)[nH]1; experiment: as §1
# [18] = substrate: O=c1[nH]c(=O)n(C/C=C/CP(=O)(O)O)cc1F; experiment: as §1
# [19] = substrate: O=c1[nH]c(=O)n(C/C=C/P(=O)(O)O)cc1Cl; experiment: as §1
# [20] = substrate: O=c1[nH]c(=O)n(C/C=C/CCP(=O)(O)O)cc1Cl; experiment: as §1
# [21] = substrate: O=c1[nH]c(=O)n(C/C=C/CP(=O)(O)O)cc1Br; experiment: as §1
# [22] = substrate: O=c1ccn(C/C=C/CCP(=O)(O)O)c(=O)[nH]1; experiment: as §1
# [23] = substrate: O=c1[nH]c(=O)n(C/C=C/CCP(=O)(O)O)cc1Br; experiment: as §1
# [24] = substrate: Cc1cn(C/C=C/CP(=O)(O)O)c(=O)[nH]c1=O; experiment: as §1
# [25] = substrate: Cc1cn(C/C=C/P(=O)(O)O)c(=O)[nH]c1=O; experiment: (§2) Activity at human recombinant TMPK by Michaelis-Menten equation analysis
# [26] = substrate: Cc1cn(C/C=C/CCP(=O)(O)O)c(=O)[nH]c1=O; experiment: as §2
# [27] = substrate: Cc1cn([C@H]2C[C@H](O)[C@@H](COP(=O)(O)O)O2)c(=O)[nH]c1=O; experiment: as §2
# [28] = substrate: O=c1[nH]c(=O)n(C/C=C/CP(=O)(O)O)cc1Cl; experiment: as §2
# [29] = substrate: O=c1[nH]c(=O)n(C/C=C/CCP(=O)(O)O)cc1F; experiment: as §2
# [30] = substrate: O=c1ccn([C@H]2C[C@H](O)[C@@H](COP(=O)(O)O)O2)c(=O)[nH]1; experiment: as §2
# [31] = substrate: O=c1[nH]c(=O)n([C@H]2C[C@H](O)[C@@H](COP(=O)(O)O)O2)cc1Br; experiment: as §2
# [32] = substrate: O=c1ccn(C/C=C/CP(=O)(O)O)c(=O)[nH]1; experiment: as §2
# [33] = substrate: O=c1[nH]c(=O)n(C/C=C/CP(=O)(O)O)cc1F; experiment: as §2
# [34] = substrate: O=c1[nH]c(=O)n(C/C=C/CCP(=O)(O)O)cc1Cl; experiment: as §2
# [35] = substrate: O=c1[nH]c(=O)n(C/C=C/CP(=O)(O)O)cc1Br; experiment: as §2
# [36] = substrate: O=c1ccn(C/C=C/CCP(=O)(O)O)c(=O)[nH]1; experiment: as §2
# [37] = substrate: O=c1[nH]c(=O)n(C/C=C/CCP(=O)(O)O)cc1Br; experiment: as §2
# [38] = substrate: Cc1cn(C/C=C/CP(=O)(O)O)c(=O)[nH]c1=O; experiment: as §2
molecule,measurement,setting,value
O=c1[nH]c(=O)n(C/C=C/CP(=O)(O)O)cc1Cl,Activity,Homo sapiens [1],inactive
same,inhibition,[2],15%
same,Activity,Homo sapiens [3],Active
same,Ki,[4],250 µM
same,inhibition,[5],15%
same,Activity,Homo sapiens [6],Active
same,Kd,[7],170 µM
same,Activity,Homo sapiens [8],inactive
B1,kcat/Km,[9],600 M⁻¹ s⁻¹
same,kcat/Km,[10],3200 M⁻¹ s⁻¹
same,kcat/Km,[11],150000 M⁻¹ s⁻¹
same,kcat/Km,[12],1000 M⁻¹ s⁻¹
same,kcat/Km,[13],4100 M⁻¹ s⁻¹
same,kcat/Km,[14],47 M⁻¹ s⁻¹
same,kcat/Km,[15],28000 M⁻¹ s⁻¹
same,kcat/Km,[16],120000 M⁻¹ s⁻¹
same,kcat/Km,[17],280 M⁻¹ s⁻¹
same,kcat/Km,[18],730 M⁻¹ s⁻¹
same,kcat/Km,[19],80 M⁻¹ s⁻¹
same,kcat/Km,[20],660 M⁻¹ s⁻¹
same,kcat/Km,[21],45000 M⁻¹ s⁻¹
same,kcat/Km,[22],30 M⁻¹ s⁻¹
same,kcat/Km,[23],360 M⁻¹ s⁻¹
same,kcat/Km,[24],35000 M⁻¹ s⁻¹
same,Km,[25],1000 µM
same,kcat,[25],0.6 s⁻¹
same,Km,[26],100 µM
same,kcat,[26],0.32 s⁻¹
same,Km,[27],20 µM
same,kcat,[27],3 s⁻¹
same,Km,[28],130 µM
same,kcat,[28],0.5 s⁻¹
same,Km,[29],1900 µM
same,kcat,[29],0.09 s⁻¹
same,Km,[30],170 µM
same,kcat,[30],4.8 s⁻¹
same,Km,[31],10 µM
same,kcat,[31],1.2 s⁻¹
same,Km,[32],1700 µM
same,kcat,[32],0.48 s⁻¹
same,Km,[33],1000 µM
same,kcat,[33],0.73 s⁻¹
same,Km,[34],150 µM
same,kcat,[34],0.1 s⁻¹
same,Km,[35],20 µM
same,kcat,[35],0.9 s⁻¹
same,Km,[36],2500 µM
same,kcat,[36],0.074 s⁻¹
same,Km,[37],160 µM
same,kcat,[37],0.058 s⁻¹
same,Km,[38],24 µM
same,kcat,[38],0.84 s⁻¹
